“And” between values parts separate entries of the source, which are not always exact repeats. Equal entries are not always repeated.
Molecular target: VDAC-ΔC, C-terminally truncated variant of Neurospora crassa VDAC lacking residues 269-283 (β19) (Neurospora crassa)
Assay: SEC-MALS; protein folded in DM, no sterol; UV, MALS and differential refractive index detectors, protein-conjugate analysis in ASTRA

Q: Which stoichiometry N does the source give for “VDAC-ΔC, C-terminally truncated variant of Neurospora crassa VDAC lacking residues 269-283 (β19) (domain or fragment)” here?
A: Its stoichiometry N is 2 and 4.

From publication PMC8485043
